Results on one molecule are retold here after patent publication US20180355045A1 (LIMITED LIABILITY COMPANY ONCOMAX LLC ONCOMAX, published 2018).

The target of assay [1] is T1, recombinant FGFR1 antigen (on the SPR chip; PA-269#37 or Sino Biologicals #10616-H08H, not told which) (human, UniProt P11362-7 22-374).
T1 sequence (looked up): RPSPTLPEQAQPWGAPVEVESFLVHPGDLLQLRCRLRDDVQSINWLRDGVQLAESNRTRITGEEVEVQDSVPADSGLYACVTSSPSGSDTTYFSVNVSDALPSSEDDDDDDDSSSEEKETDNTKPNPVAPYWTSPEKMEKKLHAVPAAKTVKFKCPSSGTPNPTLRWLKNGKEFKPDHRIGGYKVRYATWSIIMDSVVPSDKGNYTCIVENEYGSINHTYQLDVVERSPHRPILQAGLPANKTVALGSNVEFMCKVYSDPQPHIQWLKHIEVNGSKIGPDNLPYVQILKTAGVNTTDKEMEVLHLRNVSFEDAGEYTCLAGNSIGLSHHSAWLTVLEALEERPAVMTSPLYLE
In words: SPR (BIAcore T100), FGFR1 on a CM5 chip, antibody in flow, 1:1 model. How it is done: Analysis of surface plasmon resonance was performed using the BIAcore T100 System Operation Kit (BIAcore; GE Healthcare). […] Different antibody variants were diluted in HBS-P buffer (10 mmol/L HEPES, pH 7.4, 0.15 mol/L NaCl and 0.05% surfactant P20) and passed over the sensor chip surface (25 μl/min). The sensory surface was washed with HBS-P buffer, and then regenerated using 10 mmol/L glycine-HCl (pH 2). Different antibody concentrations were tested ([…]). Different cyclic kinetic properties were determined, and the results were analyzed using the 1:1 (Langmuir) binding model, inclusive of the association rate constant (Kₒₙ), dissociation rate constant (Koff) and dissociation constant (Kd) (Biacore, GE Healthcare).

Assay [2] addresses T2, fibroblast growth factor receptor 1 (FGFR1), preparation not stated (UniProt P11362 22-376, limits assumed).
T2 construct: also called FGF receptor; FGFR1 receptor
T2 sequence (looked up): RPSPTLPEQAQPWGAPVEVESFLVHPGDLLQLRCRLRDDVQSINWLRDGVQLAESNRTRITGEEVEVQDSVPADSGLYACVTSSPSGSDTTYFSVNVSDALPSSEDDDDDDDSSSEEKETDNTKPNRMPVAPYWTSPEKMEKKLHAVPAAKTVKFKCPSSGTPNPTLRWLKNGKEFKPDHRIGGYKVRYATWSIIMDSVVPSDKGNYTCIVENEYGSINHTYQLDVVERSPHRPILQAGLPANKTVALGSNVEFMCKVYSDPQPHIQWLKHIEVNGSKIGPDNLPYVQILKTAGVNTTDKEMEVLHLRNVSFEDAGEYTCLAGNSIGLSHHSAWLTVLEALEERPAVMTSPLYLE
In words: method not stated; antibody from the CHO-OM8-21 cell line; antibody from the CHO-OM8-21 cell line.

B1: humanized anti-FGFR1 antibody OM-RCA-01 (VH3/VL5) (antibody, human IgG1, kappa, V domains shown)
VH: QVQLQESGPGLVKPSQTLSLTCTVSGYSITSDYAWSWIRQHPGKGLEWIGYITYSGTTYYNPSLKSRVTISVDTSKNQFSLKLSSVTAADTAVYYCARDGNYFDYWGQGTLVTVSS
VL: DIQLTQSPSFLSASVGDRVTITCRASSSVSSSYLHWYQQKPGKAPKLLIYRTSTLQSGVPSRFSGSGSGTEFTLTISSLQPEDFATYYCQQWSGYPLTFGGGTKVEIKR
notes: Human IgG1 (IGHG1*03) / kappa; also called VH3A/L5; OM1
Broadly, the Kd is the concentration at which binding is half-saturated. In the case of B1, the Kd was 1.59 nM in assay [1] and 9.27 nM in assay [2].
